This note sets out measurements from patent publication US20220073643A1 (NANJING GENSCRIPT BIOTECH, published 2022).

“And” between values parts separate entries of the source, which are not always exact repeats. Identical values can stand only once.

B1: 231C11E9 (antibody, V domains shown)
VH: EVMLVESGGGLVKPGGSLKLSCAASGFTFNNYVMCWVRQTPEKRLEWVATISSGNFYTYYPDSVKGRFTISRDNAKNTLYLQMSSLRSEDTAIYYCASLGRGNALDNWGQGTSVTVSS
VL: DIVMTQSPASLTVTAKEKVTMSCRSSQSLLNSGNQKNYLTWYQQKPGQPPKLLIYWASTRESGVPDRFTGSGSGTDFTLTISSVQAEDLAVYYCQNDYSYPFTFGSGTKLEIK
B2: 217D9G2 (antibody, V domains shown)
VH: QAYLQQSGAELVRSGASVKMSCKASGFTFTSYNIHWVKQTPGQGLEWIGYISPGNGGSNYNLNFKDKATLTAATSSTTAYMQISSLTSEDSAVYFCATGRGFAYWGQGTLVTVSA
VL: DIVMTQSPSSLTVTPGEKVTMSCRSSQSLFNSGNQKNYLIWYQQKPGQPPKLLIYRASTRDSGVPDRFTGSGSGTDFTLTISNVQAEDLAVYYCQNDYSYPLTFGAGTKLELK
B3: 222B6G5 (antibody, V domains shown)
VH: QTYLQQSGAELVRSGASVKMSCKASGYTFTSYNIHWVKQTPGQGLEWIGYISPGNGGTYYNLKFKDKATLTTATSSSTAYMQISSLTSEDSAVYFCATGRGFAYWGQGTLVTVSA
VL: DIVMTQSPSSLTVTPGEKVTMSCKSSQSLFNSGNQKNYLIWYQQKPGQPPKLLIYRASTRDSGVPDRFTGSGSGTDFTLTISNVQAEDLAVYYCQNDYSYPLTFGAGTKLELK
B4: 226A4B5 (antibody, V domains shown)
VH: QAYLQQSGAELVRSGASVRMSCKASGFTFTSYNIHWVKQTPGQGLEWIGYIYPGSGGSNYNQKFMGKATLTADTSSSTVYMQISSLTSEDSAVYFCATGRGFAYWGQGTLVTVSA
VL: DIVMTQSPSSLTVTAGEKVTMSCKSSQSLFNSGNQKNYLTWYQQKPGQPPKLLIYRASTRESGVPDRFTGSGSGTDFTLTISSVQAEDLAVYYCQNDYSYPLTFGTGTKLELK
B5: 219F9B8 (antibody, V domains shown)
VH: QAYLQQSGAELVRSGASVRMSCKASGYTFTSYNMHWVKQTPGQGLEWIGYIYPGNGHTNYNQKFKGKATLTADTSSSTAYMQISSLTSEDSAVYFCATGRGFAYWGQGTLVTVSA
VL: DIVMTQSPSSLTVTAGEKVTMSCKSSQSLLNSGNQKNYLTWYQQKPGQPPKLLIYRASTRESGVPDRFTGSGSGTDFTLTISSVQAEDLAVYYCQNDYSYPLTFGVGTKLELK
B6: 185F2G12 (antibody, V domains shown)
VH: QAYLQQSGAELVRSGASVKMSCKASGYTFTSYNMHWVRQTPGQGLEWIGYIYPGNGGTNYSQKFKGKASLTADTSSTTAYMQISSLTSEDSAVYFCATGRGFAYWGQGTLVTVSA
VL: DIVMTQSPSSLTVTAGEKVTLSCKSSQSLFNTGNQKNYLTWYQQKPGQPPKLLIFRASTRESGVPDRFTGSGFGTDFTLTISSVQAEDLAVYYCQNDFSYPLTFGAGTKLELK
B7: 231H4G11 (antibody, V domains shown)
VH: QAYLQQSGAELVRSGASVKMSCKASGYTFTSHNIHWVKQTPGQGLEWIGYISPGNGYTNYNQKFRGKATLTADTSSSTAYMQISSLTSEDSAVYFCTRDYYGNSFAYWGQGTLVTVSA
VL: DIVMTQSPSSLTEKAGERVSMSCKSSQSLFNSGSQKNYLTWYQQKPGQPPKLLIYWASTRESGVPDRFSGSGSGTDFTLTISSVQAEDLAVYYCQNNYWFPFTFGAGTKLELK
B8: 232C5E3 (antibody, V domains shown)
VH: QAYLQQSGAELVRSGASVKMSCKASGYTFTSHNIHWIKQTPGKGLEWIGYIYPGNGGTNYNQKFKAKATLTADTSSSTAYMQISSLTSEDSAVYFCARDYYGNSFAYWGQGTLVTVSA
VL: DIMMTQSPSSLTETAGEKVSMSCKSSQSLLNSGNQKNYLTWYQQKPGQPPKLLIYWASTRESGVPDRFSGSGSGTDFTLTISSVQAEDLAVYYCQNGYRFPFTFGAGTKLELK

The target in the assay is human Claudin18.2 (human). Put plainly: cell-based or functional assay.
Consider B1, for which the “CDC % Relative activity” value worked out at 83.7% and the “CDC EC50” value is 1.55 µg/mL.
On to B2, for which the “CDC % Relative activity” value amounted to 707% and the “CDC EC50” value was found to be 0.271 µg/mL.
Turning to B3, the “CDC EC50” value was 0.278 µg/mL and 0.259 µg/mL.
For B4, the “CDC % Relative activity” value came to 73% and the “CDC EC50” value worked out at 1.78 µg/mL.
As for B5, the “CDC % Relative activity” value turned out to be 603% and the “CDC EC50” value is 0.318 µg/mL.
Regarding B6, the “CDC % Relative activity” value is 543% and the “CDC EC50” value was found to be 0.291 µg/mL.
Regarding B7, the “CDC % Relative activity” value was 88% and the “CDC EC50” value was 1.48 µg/mL.
For B8, the “CDC % Relative activity” value stood at 226% and the “CDC EC50” value is 0.575 µg/mL.
